Experimental findings from IntAct's records for PubMed 9468140 are described below.

First the molecules themselves.
B1: Retinoblastoma-associated protein (Homo sapiens), P06400 (parent)
chain: MPPKTPRKTAATAAAAAAEPPAPPPPPPPEEDPEQDSGPEDLPLVRLEFEETEEPDFTALCQKLKIPDHVRERAWLTWEKVSSVDGVLGGYIQKKKELWGICIFIAAVDLDEMSFTFTELQKNIEISVHKFFNLLKEIDTSTKVDNAMSRLLKKYDVLFALFSKLERTCELIYLTQPSSSISTEINSALVLKVSWITFLLAKGEVLQMEDDLVISFQLMLCVLDYFIKLSPPMLLKEPYKTAVIPINGSPRTPRRGQNRSARIAKQLENDTRIIEVLCKEHECNIDEVKNVYFKNFIPFMNSLGLVTSNGLPEVENLSKRYEEIYLKNKDLDARLFLDHDKTLQTDSIDSFETQRTPRKSNLDEEVNVIPPHTPVRTVMNTIQQLMMILNSASDQPSENLISYFNNCTVNPKESILKRVKDIGYIFKEKFAKAVGQGCVEIGSQRYKLGVRLYYRVMESMLKSEEERLSIQNFSKLLNDNIFHMSLLACALEVVMATYSRSTSQNLDSGTDLSFPWILNVLNLKAFDFYKVIESFIKAEGNLTREMIKHLERCEHRIMESLAWLSDSPLFDLIKQSKDREGPTDHLESACPLNLPLQNNHTAADMYLSPVRSPKKKGSTTRVNSTANAETQATSAFQTQKPLKSTSLSLFYKKVYRLAYLRLNTLCERLLSEHPELEHIIWTLFQHTLQNEYELMRDRHLDQIMMCSMYGICKVKNIDLKFKIIVTAYKDLPHAVQETFKRVLIKEEEYDSIIVFYNSVFMQRLKTNILQYASTRPPTLSPIPHIPRSPYKFPSSPLRIPGGNIYISPLKSPYKISEGLPTPTKMTPRSRILVSIGESFGTSEKFQKINQMVCNSDRVLKRSAEGSNPPKPLKKLRFDIEGSDEADGSKHLPGESKFQQKLAEMTSTRTRMQKQKMNDSMDTSNKEEK

In this assay the parent is B1. To be noted: with hdac1_human HDAC1, Q13547.
hdac1_human HDAC1, Q13547, sequence (Q13547 whole entry): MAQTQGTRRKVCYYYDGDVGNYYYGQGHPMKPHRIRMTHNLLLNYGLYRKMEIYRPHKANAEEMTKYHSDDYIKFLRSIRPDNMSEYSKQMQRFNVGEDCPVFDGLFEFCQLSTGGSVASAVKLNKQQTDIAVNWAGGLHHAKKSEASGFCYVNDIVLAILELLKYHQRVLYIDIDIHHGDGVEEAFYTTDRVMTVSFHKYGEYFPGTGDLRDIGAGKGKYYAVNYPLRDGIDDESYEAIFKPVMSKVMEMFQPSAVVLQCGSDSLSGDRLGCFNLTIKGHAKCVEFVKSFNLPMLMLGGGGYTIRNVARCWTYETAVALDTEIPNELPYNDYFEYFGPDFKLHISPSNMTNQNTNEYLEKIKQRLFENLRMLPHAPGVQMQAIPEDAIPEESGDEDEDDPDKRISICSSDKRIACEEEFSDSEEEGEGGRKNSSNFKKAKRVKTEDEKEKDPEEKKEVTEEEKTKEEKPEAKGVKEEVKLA
Consider C706F, for which the “effect of a mutation on the interaction” value is “disrupting interaction”.
